Experimental data taken from the supplement of paper PMC9942255.

Test system: Bacillus subtilis DB104 (SP-AmyQ fusion secretion)
Assay: AmyQ secretion efficiency, weighted average sort bin (1 = best secretion, 10 = worst) (bin number (weighted average, 1-10)); higher = lower secretion efficiency
Procedure, shortened: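 In this assay, the secretion score is defined as the average bin number weighted by read frequency, normalised to beads per bin, with low-abundance sequences not counted. B. subtilis DB104 cells expressing mature AmyQ behind designed signal peptides (amyE-integrated) were enclosed with fluorescein-starch in ~65 nL alginate beads at about 0.3 cells per bead. Beads grew about 13 h at room temperature, were stained with nile red, and occupied beads went into 10 equally populated green/red fluorescence ratio bins by large-particle flow cytometry, whose amplicons were Illumina-sequenced.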

| Sequence | AmyQ secretion efficiency |
| --- | --- |
| MNKKKKVVSALSISALALSVSGVASAHEI | 3.7 |
| MNKKYFKRRKCKRFTSALFPTFSSVTAAQG | 6.71 |
| MNKKYFVLIVCIIFTSALFPTDKKVTAAQG | 1.1 |
| MNKKYFVLIVCIIFTSALFPTFAVTVTAAQG | 1.05 |
| MNKKYFVLIVCIIFTSALFPTFSSATAAQG | 1.33 |
| MNKKYFVLIVCIIFTSALFPTFSSCTAAQG | 1.18 |
| MNKKYFVLIVCIIFTSALFPTFSSITAAQG | 1.16 |
| MNKKYFVLIVCIIFTSALFPTFSSVTAAQR | 1.45 |
| MNKKYFVLIVCIIFTSALFPTFSSVTCAQG | 1.06 |
| MNKKYFVLIVCIIFTSALFPTFSSVTHAQG | 1.15 |
| MNKKYFVLIVCIIFTSALFPTFSSVTLAQG | 2.52 |
| MNKKYFVLIVCIIFTSALFPTFSSVTRAQG | 1.05 |
| MNKKYFVLIVCIIFTSALFPTFSSVTTAQG | 1.05 |
| MNKKYFVLIVCIIFTSALFPTRRKKKRVTAAQG | 8.37 |
| MNKKYFVLIVCIIFTSALFPTRRRVTAAQG | 3.61 |
| MNKKYGVLIVCIIFTSALFPTFSSVTAAQG | 1.02 |
| MNKKYQTGQVCIIFTSALFPTFSSVTAAQG | 3.64 |
| MNKKYSSKQGCRIFTSALFPTFSSVTAAQG | 4.96 |
| MNKLKRLSMLKKKKASVFIFSSHALAAQY | 6.52 |
| MNKLKRLSMLTVMIASVFIFSASFFTSHALAAQY | 2.06 |
| MNKLKRLSMLTVMIASVFIFSSHALAADD | 4.21 |
| MNKLKRLSMLTVMIASVFIFSSHALAAQE | 1.11 |
| MNKLKRLSMLTVMIASVFIFSSHALAARR | 2.05 |
| MNKLKRLSMLTVMIASVFIFSSHALGAQY | 1.69 |
| MNKLKRLSMLTVMIASVFIFSSHALMAQY | 7.08 |
| MNKLKRLSMLTVMIASVFIFSSHALVAQY | 5.99 |

| Sequence | AmyQ secretion efficiency |
| --- | --- |
| MNKLKRLSMLTVMIASVFIFSSHCLAAQY | 2.86 |
| MNKLKRLSMLTVMIASVFIFSSHILAAQY | 3.91 |
| MNKLKRLSMLTVMIASVFIFSSHQLAAQY | 4.72 |
| MNKLKRLSMLTVMIASVFIFSSHSLAAQY | 2.4 |
| MNKLKRLSMLTVMIASVFIFSSHTLAAQY | 1.95 |
| MNKLKRLSMLTVMIASVFIFSSHVLAAQY | 2.99 |
| MNKLKRLSMLTVMIASVFIFSSSALAAQY | 2.06 |
| MNKLKRLSMLTVMIASVFIFSSSHALAAQY | 1.68 |
| MNKLKRLSMSKSRGYSVFIFSSHALAAQY | 6.58 |
| MNKPTKGFSTLALAAGSTAAAAGGAGTIHAQQP | 8.05 |
| MNKPTKLFILLALAALMFAAAAGGAGTIHAQQP | 1.87 |
| MNKPTKLFSTLALAAAAAAGGAGTIHAQQP | 1.43 |
| MNKPTKLFSTLALAAGMTAAAAGGAGTCHAQQP | 1.79 |
| MNKPTKLFSTLALAAGMTAAAAGGAGTIHAQRR | 6.62 |
| MNKPTKLFSTLALAAGMTAAAAGGAGTVHAQQP | 2.25 |
| MNKPTKLFSTLALAAGMTDEEEEEAGTIHAQQP | 7.16 |
| MNKPTKLFSTLALAAGMTEDEAGGAGTIHAQQP | 2.79 |
| MNKPTKLFSTLALAAGMTKDKTTSAGTIHAQQP | 7.85 |
| MNKPTKLFSTLALAAGMTKRRAGGAGTIHAQQP | 5.85 |
| MNKPTKLFSTLALAAGMTLIAAAAGGAGTIHAQQP | 1.83 |
| MNKPTKLFSTLALAAGMTRRKKRKAGTIHAQQP | 6.79 |
| MNKPTKLKKKKALAAGMTAAAAGGAGTIHAQQP | 8.12 |
| MNKPTKLRRKKKRAAGMTAAAAGGAGTIHAQQP | 7.88 |
| MNKPTKQRTKLALAAGMTAAAAGGAGTIHAQQP | 6.94 |
| MNKRFFGPIILAFILFAGAIAIPS | 7.33 |
| MNLFLIAPMLLSAASLAFFAMSGSAQAAAY | 5.75 |

| Sequence | AmyQ secretion efficiency |
| --- | --- |
| MNLLFNLSMLTVMIASVFIFSSHALAAQY | 2.94 |
| MNLNTILLSSALSLGMLVSAAPVLATSS | 1.5 |
| MNLRKIILLSSALSLGMLVSAAPVLATSS | 2.82 |
| MNLRKIKKSSALSLGMLVSAAPVLATSS | 5.42 |
| MNLRKILLFIALFLMMLTVSAAPVLATSS | 1.67 |
| MNLRKILLSSALSLGMLEDDAPVLATSS | 2.76 |
| MNLRKILLSSALSLGMLEEEDEEVLATSS | 4.45 |
| MNLRKILLSSALSLGMLFSFAFVSAAPVLATSS | 2.03 |
| MNLRKILLSSALSLGMLKRKAPVLATSS | 7.26 |
| MNLRKILLSSALSLGMLPSAAPVLATSS | 2.71 |
| MNLRKILLSSALSLGMLTLFFLSAVTVSAAPVLATSS | 1.71 |
| MNLRKILLSSALSLGMLVSAAPALATSS | 2.26 |
| MNLRKILLSSALSLGMLVSAAPCLATSS | 2.03 |
| MNLRKILLSSALSLGMLVSAAPELATSS | 3.72 |
| MNLRKILLSSALSLGMLVSAAPFLATSS | 6.67 |
| MNLRKILLSSALSLGMLVSAAPGLATSS | 3.12 |
| MNLRKILLSSALSLGMLVSAAPLLATSS | 4.04 |
| MNLRKILLSSALSLGMLVSAAPQLATSS | 4.11 |
| MNLRKILLSSALSLGMLVSAAPTLATSS | 2.34 |
| MNLRKILLSSALSLGMLVSAAPVLARKR | 5.51 |
| MNLRKILLSSALSLGMLVSAAPVLATEE | 1.83 |
| MNLRKILLSSALSLGMLVSAAPVLATSE | 1.92 |
| MNLRKILLSSALSLGMLVSAAPVLDTSS | 6.16 |
| MNLRKILLSSALSLGMLVSAAPVLETSS | 7.05 |
| MNLRKILLSSALSLGMLVSAAPVLGTSS | 4.45 |
| MNLRKILLSSALSLGMLVSAAPVLHTSS | 6.17 |

| Sequence | AmyQ secretion efficiency |
| --- | --- |
| MNLRKILLSSALSLGMLVSAAPVLLTSS | 7.26 |
| MNLRKILLSSALSLGMLVSAAPVLMTSS | 4.51 |
| MNLRKILLSSALSLGMLVSAAPVLNTSS | 5.87 |
| MNLRKILLSSALSLGMLVSAAPVLQTSS | 5.33 |
| MNLRKILLSSALSLGMLVSAAPVLSTSS | 4.72 |
| MNLRKILLSSALSLGMLVSAAPVLVTSS | 6.87 |
| MNLRKILLSSALSLGMLVSAAPVLWTSS | 6.71 |
| MNLRKILLSSALSLGMLVSAAPVLYTSS | 7.31 |
| MNLRKILLSSALSLGMLVSAAPWLATSS | 6.1 |
| MNLRKILLSSALSLGMLVSAAPYLATSS | 5.88 |
| MNLRKILLSSALSLGMLVVSAAPVLATSS | 1.4 |
| MNLRKILLSSALSLVSAAPVLATSS | 3.92 |
| MNLRKIMSIMNIILLSSALSLGMLVSAAPVLATSS | 2.04 |
| MNLRKIRKKRALSLGMLVSAAPVLATSS | 7.46 |
| MNLRKIRRKKKKSLGMLVSAAPVLATSS | 7.69 |
| MNLRKNSFFILLSSALSLGMLVSAAPVLATSS | 1.98 |
| MNLRKTYGSSALSLGMLVSAAPVLATSS | 6.93 |
| MNLRKTYSGRGYSLGMLVSAAPVLATSS | 6.74 |
| MNLWMRKTLVVLFTIVTFGLVSPPAALMADKP | 2.15 |
| MNMLKRLSMLTVMIASVFIFSSHALAAQY | 1.63 |
| MNMSITYSLLALLAVVAFAFTDSSKAKAAEA | 2.51 |
| MNRLFMKASLVLFAVVFVFAVKGAPAKAETH | 1.75 |
| MNRRKILLSSALSLGMLVSAAPVLATSS | 2.39 |
| MNSCSQLIVCSLAAILLLIPSVSFAADS | 4.9 |
| MNSMTIWTIILGALLVCCIAVAYTLTKSQAGASSS | 6.92 |
| MNSYINVLTMCFLGLILFVPTALADNS | 1.26 |

| Sequence | AmyQ secretion efficiency |
| --- | --- |
| MNTAIIIAIIAAVIVIAALITFNVRNASPG | 8.06 |
| MNVLLSALLLLLFAFEPSASGKKL | 7.25 |
| MPGKSAVLLSLIMLIAGFLISFSFQM | 7.65 |
| MPIFKKVMMCLAVTLVFGSMSFPTLTNSGGFKE | 6.15 |
| MPIKKKCLAVTLVFGSMSFPTLTNSGGFKE | 5.38 |
| MPIKKKVMMCKRVTLVFGSMSFPTLTNSGGFKE | 6.57 |
| MPIKKKVMMCLAVMLVFLMMSFPTLTNSGGFKE | 3.23 |
| MPIKKKVMMCLAVTLVFGSMDEETLTNSGGFKE | 6.94 |
| MPIKKKVMMCLAVTLVFGSMIFITLTNSGGFKE | 6.04 |
| MPIKKKVMMCLAVTLVFGSMRKRRRKNSGGFKE | 8.69 |
| MPIKKKVMMCLAVTLVFGSMRRKTLTNSGGFKE | 7.75 |
| MPIKKKVMMCLAVTLVFGSMSFPTLTNATSGGFKE | 2.8 |
| MPIKKKVMMCLAVTLVFGSMSFPTLTNDGGFKE | 5.45 |
| MPIKKKVMMCLAVTLVFGSMSFPTLTNEGGFKE | 4.78 |
| MPIKKKVMMCLAVTLVFGSMSFPTLTNKGGFKE | 7.01 |
| MPIKKKVMMCLAVTLVFGSMSFPTLTNSGEFKE | 5.74 |
| MPIKKKVMMCLAVTLVFGSMSFPTLTNSGFFKE | 4.32 |
| MPIKKKVMMCLAVTLVFGSMSFPTLTNSGGDED | 6.4 |
| MPIKKKVMMCLAVTLVFGSMSFPTLTNSGGFPE | 5.65 |
| MPIKKKVMMCLAVTLVFGSMSFPTLTNSGGFSG | 3.08 |
| MPIKKKVMMCLAVTLVFGSMSFPTLTNSGNFKE | 5.35 |
| MPIKKKVMMCLAVTLVFGSMSFPTLTNVGGFKE | 5.79 |
